Our source for the binding result, EC50 and IC50 values is patent US20240002497A1 (Merck Sharp & Dohme, published 2024).

Experiment [1] deals with T1, huNav157chim5 + β1-β2-β3 (human).
T1 construct: DI, DII, DIII from Nav1.5α, DIV from Nav1.7α; also called huNav157 chimera 5
The experiment can be described thus: FACS, transiently transfected HEK293T cells. The procedure: (§1) Binding of the ISVDs to cell-expressed Nav1.7α was detected via murine anti-Flag (Sigma, catalog #F1804). Briefly, cells were resuspended in FACS buffer (PBS, 10% FBS, NaN₃) and transferred to a 96-well V-bottom plate at 1×10^5 cells/well. Purified FLAG3-tagged ISVD was diluted in FACS buffer and added to the cells for 30 minutes at 4° C. […] Prior to the read-out, the samples were resuspended in 1 μg/mL propidium iodide (Sigma, catalog #P4170) to exclude dead cells. Between each step, the cells were centrifuged for 5 minutes at 200 grams and washed with 100 μL/well FACS buffer.
(§2) FACS binding studies (as described above) were performed on HEK293T cells transiently transfected with expression vectors encoding a huNav1.7α or rhNav1.7α fused at the C-terminus via a P2A viral peptide linker to a single polypeptide encoding sodium channel beta subunits Navβ1, Navβ2, and Navβ3 in tandem (β1-β2-β3; SEQ ID NO:21). Similarly, HEK293T cells transiently transfected with expression vectors encoding chimeric variants of huNav1.7α in which individual domains are replaced by their huNav1.5α counterparts (chimeras 1 to 4 in FIG. 16) or with chimeric variants of huNav1.5 in which individual domains are replaced by their huNav1.7α counterparts (chimeras 5 to 8 in FIG. 16) fused at the C-terminus via a P2A viral peptide linker to β1-β2-β3 as above. See Table 7 for description of the expression vectors encoding the chimeras, Table 21 and FIG. 16).
On the technique in general: In flow cytometry, cells or beads pass a laser one at a time.

Experiment [2] addresses T2, huNav157chim7 + β1-β2-β3 (human).
T2 construct: DI, DIII, DIV from Nav1.5α, DII from Nav1.7α; also called huNav157 chimera 7
The experiment can be described thus: FACS, transiently transfected HEK293T cells. The procedure: as §1, §2

The target in experiment [3] is T3, huNav157chim6 + β1-β2-β3 (human).
T3 construct: DI, DII, DIV from Nav1.5α, DIII from Nav1.7α; also called huNav157 chimera 6
The experiment in a line: FACS, transiently transfected HEK293T cells. The procedure: as §1, §2

Experiment [4] concerns the target T4, huNav157chim12 + β1-β2-β3 (human, UniProt Q15858 1-1988; A5A6L6 19-218; O60939 30-215; Q2KI11 23-215).
T4 construct: DI S5-S6 from Nav1.5α, rest Nav1.7α; also called huNav157 chimera 12
The experiment can be described thus: FACS, transiently transfected HEK293T cells. The procedure: as §1, §2

Experiment [5] concerns the target T5, huNav157chim1 + β1-β2-β3 (human, UniProt Q15858 1-1962; A5A6L6 19-218; O60939 30-215; Q2KI11 23-215).
T5 construct: DI, DII, DIII from Nav1.7α, DIV from Nav1.5α; fused by P2A to β1-β2-β3; also called huNav157 chimera 1
The experiment in a line: FACS, transiently transfected HEK293T cells. The procedure:
as §1, §2

The target of experiment [6] is T6, huNav157chim4 + β1-β2-β3 (human, UniProt Q15858 44-1988; A5A6L6 19-218; O60939 30-215; Q2KI11 23-215).
T6 construct: DII, DIII, DIV from Nav1.7α, DI from Nav1.5α; also called huNav157 chimera 4
The experiment can be described thus: FACS, transiently transfected HEK293T cells. The procedure: as §1, §2

Experiment [7] concerns the target T7, huNav1.7α(R277Q) + β1-β2-β3 (human).
T7 construct: polyprotein as encoded; the entry already carries R277Q; also called huNav1.7(R277Q)-beta1-beta2-beta3
The experiment can be described thus: binding FACS, CHO FlpIn cells. The method in brief: (§3)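 Flow cytometry binding assay on stable CHO FlpIn cell lines expressing Nav1.7α (human wild type, single DI S5-S6 point variants, or rhesus) with β1-β2-β3. Cells in FACS buffer (PBS, 10% FBS, NaN₃) were plated at 1×10^5 cells/well in 96-well V-bottom plates. FLAG3-tagged ISVDs were added for 30 minutes at 4° C and detected with murine anti-Flag. Dead cells were excluded using 1 μg/mL propidium iodide, and EC50 was determined.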

The target of experiment [8] is T8, huNav1.7α(E281V) + β1-β2-β3 (human).
T8 construct: polyprotein as encoded; the entry already carries E281V; also called huNav1.7(E281V)-beta1-beta2-beta3
The experiment in a line: binding FACS, CHO FlpIn cells. In a few lines:
as §3

Experiment [9] has as its target T9, huNav1.7α(F276V) + β1-β2-β3 (human, UniProt Q15858 1-1988; A5A6L6 19-218; O60939 30-215; Q2KI11 23-215).
T9 construct: polyprotein as encoded, P2A sites liberate the subunits; the entry already carries F276V; also called huNav1.7(F276V)-beta1-beta2-beta3
The experiment in a line: binding FACS, CHO FlpIn cells. The method in brief: as §3

The target in experiment [10] is T10, huNav1.7α(V331M) + β1-β2-β3 (human).
T10 construct: polyprotein as encoded; the entry already carries V331M; also called huNav1.7(V331M)-beta1-beta2-beta3
The experiment can be described thus: binding FACS, CHO FlpIn cells. The method in brief:
as §3

For experiment [11], the target named is T11, huNav1.7α + β1-β2-β3 (human, UniProt Q15858 1-1988; A5A6L6 19-218; O60939 30-215; Q2KI11 23-215).
T11 construct: Cell line (CHO FlpIn, HEK FlpIn, transient HEK293T) is named under assay; also called huNav1.7-beta1-beta2-beta3; human Nav1.7α with Navβ1, Navβ2 and Navβ3
The experiment in a line: binding FACS, CHO FlpIn cells. In a few lines:
as §3

Experiment [12] addresses T11, huNav1.7α + β1-β2-β3. The experiment can be described thus: competition FACS, HEK FlpIn cells, vs EC30 of CMYC3-F0103265B04. The method in brief:
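HEK FlpIn cells expressing huNav1.7α+β1-β2-β3 (1×10⁵/well) were incubated 1.5 h at 4 °C with a dilution series of purified ISVD plus CMYC3-tagged F0103265B04 at EC30-equivalent concentration in PBS, 2% FBS, 0.05% NaN₃. Flow cytometry read-out with 5 nM TOPRO3 to exclude dead cells.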

B1: F0103275B05 (VHH)
VHH: EVQLVESGGGLVQPGGSLRLSCAASGSIFNINSMAWYRRAPGKQRELVASSTNGGSTNYADSVKGRFTISRDNAKRVYLQMNSLTPEDTAVYYCNALLQPSIYDISRTYWGQGTLVTVSS
notes: entry includes the FLAG-HIS6 tag; also called F0103275B05 (parental)-FLAG-HIS6
As a reminder, the EC50 is the concentration needed to bring the measured effect to its halfway point. A word on the IC50: it is the concentration that inhibits the measured activity by half. For B1, the binding result in experiment [1], in [2], in experiment [3], in experiment [4], in [5] and in experiment [6] was “no binding (tested: 1 µM)” in each case. The EC50 was 25 nM in experiment [7]; 24 nM in experiment [8]; 26 nM in experiment [9]; 21 nM in [10]; 30 nM in experiment [11]. Besides, the IC50 in experiment [12] came out at 98 nM.
